Consider four molecules from PMC3097136.

Data set [1] deals with T1, COUP-TFI (Nr2f1) (Mus musculus, UniProt Q60632 1-422).
T1 sequence: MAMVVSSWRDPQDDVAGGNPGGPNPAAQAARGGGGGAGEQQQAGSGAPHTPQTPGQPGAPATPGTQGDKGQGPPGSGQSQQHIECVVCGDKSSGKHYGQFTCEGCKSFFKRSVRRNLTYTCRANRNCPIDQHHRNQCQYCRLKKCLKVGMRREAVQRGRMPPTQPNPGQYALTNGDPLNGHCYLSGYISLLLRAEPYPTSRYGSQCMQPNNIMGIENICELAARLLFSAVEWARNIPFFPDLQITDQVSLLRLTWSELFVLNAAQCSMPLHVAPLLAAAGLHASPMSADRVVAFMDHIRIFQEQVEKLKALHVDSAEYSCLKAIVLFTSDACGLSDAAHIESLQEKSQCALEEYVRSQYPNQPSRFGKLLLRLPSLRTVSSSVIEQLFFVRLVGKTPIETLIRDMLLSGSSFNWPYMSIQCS
Nature of the data set: competition.

Data set [2] addresses tESR1 (estrogen receptor alpha DNA-binding domain) (Homo sapiens, UniProt P03372 185-250). Put plainly: EMSA. A general note: In EMSA bound probe runs differently from free probe, usually more slowly.
The next data set concerns the target T2, COUP-TFII (Nr2f2) (Mus musculus, UniProt P43135 1-414).
T2 sequence: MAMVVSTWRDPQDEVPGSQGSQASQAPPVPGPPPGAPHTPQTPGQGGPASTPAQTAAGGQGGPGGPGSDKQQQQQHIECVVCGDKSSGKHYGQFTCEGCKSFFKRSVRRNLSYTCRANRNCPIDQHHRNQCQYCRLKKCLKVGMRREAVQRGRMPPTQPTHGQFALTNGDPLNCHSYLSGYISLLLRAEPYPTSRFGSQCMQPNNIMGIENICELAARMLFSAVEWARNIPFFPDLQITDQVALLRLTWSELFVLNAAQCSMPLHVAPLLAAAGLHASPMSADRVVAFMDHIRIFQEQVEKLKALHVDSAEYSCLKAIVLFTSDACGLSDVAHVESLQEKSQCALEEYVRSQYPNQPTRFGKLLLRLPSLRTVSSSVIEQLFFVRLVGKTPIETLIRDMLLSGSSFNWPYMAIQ
Put plainly: EMSA.

Data set [3] has as its target T1, COUP-TFI (Nr2f1). Nature of the data set: EMSA.
Data set [4] addresses T1, COUP-TFI (Nr2f1). Nature of the data set: competition. This is another data set of the same source.

tESR1 (estrogen receptor alpha DNA-binding domain), sequence (P03372 185-250): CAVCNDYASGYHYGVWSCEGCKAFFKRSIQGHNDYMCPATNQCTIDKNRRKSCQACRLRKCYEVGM

B1: cold probe A* (dsDNA)
DNA 1: ATCCAAGCTCGAATTGAAATCTCTTT
DNA 2: AAAGAGATTTCAATTCGAGCTTGGAT
B1: in the data set with COUP-TFI (Nr2f1) [1], the binding result was “no binding”.

B2: probe A (nPE2 NRBE) (dsDNA)
DNA 1: ATCCAAAGGTCAATTGAAATCTCTTT
DNA 2: AAAGAGATTTCAATTGACCTTTGGAT
As to B2, the binding result (in data set [2]; with COUP-TFII (Nr2f2); in the data set with COUP-TFI (Nr2f1) [3]) was “binds” each time.

B3: probe A* (mutated NRBE) (dsDNA)
DNA 1: ATCCAAGCTCGAATTGAAATCTCTTT
DNA 2: AAAGAGATTTCAATTCGAGCTTGGAT
On to B3, for which the binding result (in data set [2]; in the data set with COUP-TFI (Nr2f1) [3]) was “no binding” in each case.

B4: cold probe A (dsDNA)
DNA 1: ATCCAAAGGTCAATTGAAATCTCTTT
DNA 2: AAAGAGATTTCAATTGACCTTTGGAT
In the case of B4, in the data set with COUP-TFI (Nr2f1) [4], the binding result was “binds”.
